# B1: TPR t1 (parent)
# chain: GACCAAUCUGCCCUCAGAGCUCGAGAACAUCUUCGGAUGCAGAGGAGGCAGGCUUCGGUGGCGCGAUAGCGCCAACGUCCUCAACCUCCAAUGCAUCCCACCACAUGAUGAUGCCUGAAGAGCCUUGGUUUUUUG
# Variants of: B1
# Test: polymerase ribozyme fitness, log enrichment relative to wild type (log ratio); higher = more active; in vitro selection for triplet polymerase activity
# Method in brief: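 To select mutant libraries of each subunit of a heterodimeric triplet polymerase ribozyme, built by PCR and transcribed, each was annealed with a biotinylated primer, partner subunit and triplets, then incubated frozen at −7 °C. Extended constructs were gel-excised, captured on streptavidin beads and amplified by RT-PCR, in one round carried out in triplicate. Illumina sequencing of input and output libraries kept genotypes with ≥10 input reads and ≥1 read per output. Fitness is the base-2 logarithm of genotype enrichment relative to wild-type enrichment, from inverse-variance-weighted replicate averages.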
row,Variant,polymerase ribozyme fitness (log ratio)
1,C4A A5U C15G C88U G120C,-4.83
2,C3U U109G G110A,-4.81
3,C3U C101A G117U G135U,-4.63
4,C3U G44U C73G U125A,-2.29
5,C4G C8G A50U G113C C115U,-5.07
6,C3U G48A C72U U129G,-4.31
7,C3U C53U,-1.24
8,C4A U7C C49G A50U C88G,-2.88
9,C4G C28A C40G G48U C49G G63A U96G C114G U116G,-6.86
10,C4A C40U C114U,-4.58
11,C4A G69U U106C C124U,-1.05
12,C3U G39U U81C A111C,-2.34
13,C3U G35U C70A C99A C115A,-4.32
14,C3U G39U G61A G93C C101A,-3.7
15,C3U C49A,0.209
16,C3U C49U,-1.18
17,C3U C49G,-1.16
18,C4G C101U,-2.36
19,C3U C22U,-3.6
20,C3U C22G,-3.12
21,C4A C56A,-2.53
22,C4A C56G,-1.83
23,C4A C56U,-0.847
24,C4G A6U A27U A111U,-4.8

row,Variant,polymerase ribozyme fitness (log ratio)
1,C4G C8U C72A U78A U87A,-2.03
2,C4A C73U,-1.49
3,C4A C8U,-0.352
4,C3U G52A A121U,1.95
5,C4A C72A C114U C124A,-2.33
6,C4G G61U A66U C94A C123U U132A,-1.51
7,C4A G52A C53A A90U U130C,-3.34
8,C4A A5G A111C,-0.259
9,C3U G61U C80G,-5.52
10,C3U C70U G113C,-3.44
11,C4G C123A,-0.461
12,C4A A119C G120A G127U,-0.47
13,C3U U9A G69C C82A,-1.37
14,C4G C11G C49A G51C G58A C73U C79U,-4.64
15,C3U C89A,-2.23
16,C3U C89U,-0.863
17,C4A G48A G57A C85U C101A,-4.21
18,C3U C13A G39U C53A C56U G120U,-0.266
19,C4G C73U C101A U129A,-1.48
20,C3U C53G U112A,0.998
21,C4A G110A,-2.19
22,C3U G44U G45U G63U C88A,-2.78
23,C3U G71U C101G,-3.08
24,C3U C15G C72A,-3.04

row,Variant,polymerase ribozyme fitness (log ratio)
1,C4A U59A C88A,-2.43
2,C4G C15U G47C C73U A105U G107U C123G U126A,-7.47
3,C4A C72U G110A U129G,-5.59
4,C4G C12U,-2.1
5,C3U G58A C101G,-2.57
6,C4G A5U C73G C89U C101G G120A G135A,-3.57
7,C3U C13A G69U A121G,1.51
8,C4G C115U,-2.19
9,C3U C49A A84C C104U G120U,-0.46
10,C3U C12G C13U C62U G120A,2.11
11,C4G G47A C79A A90G G120A,-3.84
12,C4A U87G,-1.28
13,C3U C12A A46U,-1.98
14,C3U U78C,0.0101
15,C4A C11G A16G G36C C56U G113U,-2.81
16,C4G C8U A18U A43U U81A,-2.85
17,C4A G63C G77C G128U,-3.69
18,C3U C62A C115A U125G,-1.86
19,C4A C12A C13A A18U G44A G51A U59A U87A G110C G120A U126G,-7.29
20,C3U G113A,-1.68
21,C4G G44U U78G U96G U106C,-4.97
22,C4G G120C,-1.15
23,C4G G120A,-0.396
24,C4A A37U G93A,-2.66

row,Variant,polymerase ribozyme fitness (log ratio)
1,C4A C13U C124A,0.115
2,C4G G60A,-1.91
3,C4G G60U,-1.18
4,C4G U9A C89A C115A G117C,-4.91
5,C3U G58A,-0.199
6,C3U G58C,-0.467
7,C4A U9G G42C,-3.15
8,C3U C12U G63A A66C U133A,-2.5
9,C3U G69U A121G U125A,2.91
10,C3U G45C G61A,0.0995
11,C3U C73U U87C C88U A111G C123A,-3.08
12,C3U C53A G71A U78A,-0.343
13,C4G A29G A74C A83U,-4.38
14,C4G C73A,-1.43
15,C3U C72U C76U C85U U116G C124U U129C,-6.12
16,C4A G10C C98U G117A A121U,-4.42
17,C3U C12A U21C G36A G63U,-3.34
18,C3U G93A C102U,-2.82
19,C3U G69C,-1.44
20,C3U G69U,0.198
21,C4A A29G U30C A74C A121U,-3.71
22,C4A C56A G69U A90C,-2.84
23,C4G U9C A43G G47A C73A,-2.93
24,C4A C40U C62A U112A,-2.53

row,Variant,polymerase ribozyme fitness (log ratio)
1,C3U C86U C104A,-1.75
2,C4A G39C A75G C114G G120A,-5.14
3,C3U G47U C53G U96G C104U A118G C124U,-1.09
4,C3U C20A,-2.93
5,C3U C28U A41G A43U A46C U92C C94U C124U,-4.65
6,C3U C15A U81A U92G C115U U125G,-5.92
7,C3U C70U U78G U87A,-1.1
8,C4A G17U C73U,-3.37
9,C4G G110C,-5.58
10,C3U C34G G63U,-6.26
11,C4G C102A,-3.83
12,C4G C56U,-1.92
13,C4A C20A,-4.2
14,C3U G57U G69A,-3.04
15,C4G C13G C49A G60A C62U,-4.62
16,C4G G71U C115U,-3.28
17,C3U C40U U78C G113A G120A C123A,-2.82
18,C4A A41G U106A,-1.87
19,C3U G48U C49G C99U,-4.65
20,C3U G48A,-1.92
21,C3U G48U,-0.574
22,C3U C13U G44U U55C G63A A108U U112G G113C,-6.03
23,C3U C102U C114G C124G,-4.14
24,C4G G61A U78A A83G C124U U125G,-1.07

row,Variant,polymerase ribozyme fitness (log ratio)
1,C3U U59G G113A,-1.89
2,C4A U9G C40U G44A U55C C88A G120C,-3.07
3,C4A A46U C56U C72G C123G,-4.32
4,C3U G39A G69U A105C G120U G128C,-3.77
5,C4G U9G A43U,-1.6
6,C4G A66G C72U C80U C123A,-2.88
7,C4G G17U C53U C56A,-3.68
8,C4G A18U G25C C62A A111U,-6.22
9,C4G C13U C20G A27U G71U U106A U125G,-5.01
10,C4A C64U,-1.24
11,C3U U7G G42U,-1.73
12,C4A G128C,-1.53
13,C4G C12G G36C G44C C97G,-2.86
14,C3U C13U A37C C70A,-1.1
15,C4A A43G G47C C64U C86G U125G G127C,-2.57
16,C4A C8G G36U G45U U78A C114U,-5.41
17,C4A U87C G120A G127A,-0.66
18,C4A G17A C53G C70G U106G G113A C115U U131A,-6.14
19,C4A C11G C13A C53U G69C U81G G110A,-6.32
20,C4G A91C G120U,-1.84
21,C3U C85A G117A,-2.52
22,C3U G17U,-3.11
23,C3U G17A,-3.24
24,C4G A121C,0.946

row,Variant,polymerase ribozyme fitness (log ratio)
1,C4A A18G G71U C89A A100C G113A C124U,-4.08
2,C4G G10U G63U G69U G120A,0.883
3,C4A C49G A83G C88A C102U G120C,-5.38
4,C4G A46U G47A,-4.4
5,C4A A84C C115U G135U,-3.92
6,C3U C79U C94U G110U,-1.77
7,C3U C49A U92A G113A,-2.63
8,C4A U9A C72A U78C,-0.731
9,C4G A50U C72G,-3.42
10,C3U G47A C49G G69A,-4.22
11,C3U G52U G57U C82A G122A,-3.12
12,C4G G63A,-2.73
13,C3U G44A,-1.11
14,C3U G44U,-1.62
15,C3U U7G C20U U21G G71U G110U C124G,-5.25
16,C4A U7A G71A,-1.76
17,C4G C8A C89A G120C,-0.0855
18,C3U C53U C73U C88U,-0.301
19,C4A U78A G93C C115A,-2.87
20,C4A U32C G61A U106A G127U U130G G135U,-2.56
21,C3U C124G,2.17
22,C3U C124A,1.2
23,C3U G48A G60C G113A,-1.14

# Reference: the RNAGym collection of RNA variant scans (doi:10.1073/pnas.2313332121)
